Measured values published in the supplement of paper PMC10724198.
± gives the standard deviation of the averaged measurements.

system: Saccharomyces cerevisiae; test: protein stability index of tFT-peptide fusion (C-terminal peptide) (PSI (0-1 scale)); higher = more stable (slower turnover); details: genetic background: das1 deletion; temperature: 30 C
Protocol: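 MPS profiling in S. cerevisiae of the yeast C-terminome library: the last 12 aa of each annotated ORF are fused to the C-terminus of a sfGFP-mCherry timer, after a GGGS linker. Cells are FACS-sorted into 8 mCherry/sfGFP bins and deep-sequenced. PSI runs from 0 (unstable) to 1 (stable); wild type and das1Δ backgrounds, two technical replicates each.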

GLFPSNYVSLGN [ABP1 C-terminal 12 aa] and GLLLPLCHRKRS [YOR012W C-terminal 12 aa] are within error of each other in protein stability index: 0.689 ± 0.0081 for the first, 0.706 ± 0.015 for the second.

GLRVANPDSDPE [YDR239C C-terminal 12 aa] and GLSLSFSKKLDL [DSN1 C-terminal 12 aa] are within error of each other in protein stability index: 0.7 ± 0.0077 for the first, 0.685 ± 0.023 for the second.

“GSTSCPLLRLSR [YHR073C-B C-terminal 12 aa]” and GYAKTWSIASAN [CTT1 C-terminal 12 aa] are within error of each other in protein stability index: 0.707 ± 0.021 for the first, 0.714 ± 0.011 for the second.

GYCKVHPVSDSK [ASI1 C-terminal 12 aa] and HAGTRPVLLLQK [YKL053W C-terminal 12 aa] are within error of each other in protein stability index: 0.706 ± 0.0072 for the first, 0.694 ± 0.016 for the second.

HCTVVLPSILKR [YHR217C C-terminal 12 aa] and HDHHNDVPEAPV [RAD1 C-terminal 12 aa] are within error of each other in protein stability index: 0.714 ± 0.024 for the first, 0.6941 ± 0.0012 for the second.

First: HEEVKHTADTVD [CDC37 C-terminal 12 aa]
Second: HEWKTSINAIST [SWT1 C-terminal 12 aa]
The protein stability index of the first is higher: 0.71118 ± 0.00024 for the first, 0.6881 ± 0.0024 for the second.

HFKTLVEAFTRN [VPS52 C-terminal 12 aa] and HFQYKGKPSRRF [BUB1 C-terminal 12 aa] are within error of each other in protein stability index: 0.709 ± 0.0082 for the first, 0.693 ± 0.012 for the second.

Going from HISLKCIVYKEY [YER135C C-terminal 12 aa] to HKGAVCVALNDV [LST8 C-terminal 12 aa], the protein stability index rises from 0.638 ± 0.0081 to 0.6883 ± 0.0052.

Compared with HKGNGTDKVFVF [AIM33 C-terminal 12 aa], HKNHSVPRLIQV [YCL068C C-terminal 12 aa] is lower in protein stability index: 0.7139 ± 0.001 for the first, 0.6194 ± 0.0049 for the second.

HKQCDSLLDRLK [PTA1 C-terminal 12 aa] and HLEKKEPKSRKK [YDL129W C-terminal 12 aa] are within error of each other in protein stability index: 0.698 ± 0.024 for the first, 0.724 ± 0.013 for the second.

HLTKLCIFPGLP [YLR282C C-terminal 12 aa] and HLYDHILEKMVK [CNM67 C-terminal 12 aa] are within error of each other in protein stability index: 0.68857 ± 5.1e-05 for the first, 0.694 ± 0.032 for the second.

HLYFQNPPPAMC [HOT13 C-terminal 12 aa] and HNLHSYEKRLHN [IMD2 C-terminal 12 aa] are within error of each other in protein stability index: 0.72 ± 0.021 for the first, 0.7234 ± 0.0046 for the second.

Compared with HQFCEQKYVETI [RRT16 C-terminal 12 aa], HSRASVQSHPQH [DAL80 C-terminal 12 aa] is higher in protein stability index: 0.7109 ± 0.0024 for the first, 0.7271 ± 0.0023 for the second.

HSSYDRPMIIKN [UBP15 C-terminal 12 aa] and IADHLVGRKRVD [PFK2 C-terminal 12 aa] are within error of each other in protein stability index: 0.685 ± 0.056 for the first, 0.701 ± 0.014 for the second.

Going from IAEENSSTESLF [CIS1 C-terminal 12 aa] to ICCQVAKSLLKI [YGL074C C-terminal 12 aa], the protein stability index falls from 0.709 ± 0.0088 to 0.656 ± 0.016.

IDDKSDQEESLQ [MAF1 C-terminal 12 aa] and IDLIAFLRNGPL [GPR1 C-terminal 12 aa] are within error of each other in protein stability index: 0.706 ± 0.0079 for the first, 0.737 ± 0.039 for the second.

IDLLAENTKTPI [COA1 C-terminal 12 aa] and IEQEAKQRERNQ [COA6 C-terminal 12 aa] are within error of each other in protein stability index: 0.6964 ± 0.0031 for the first, 0.6993 ± 0.0011 for the second.

First: IFCFDNYRSCYC [YKL031W C-terminal 12 aa]
Second: IFKSLIAKKVQS [BPL1 C-terminal 12 aa]
The protein stability index of the first is higher: 0.7071 ± 0.0034 for the first, 0.69 ± 0.001 for the second.

Going from IFLMKKAYDLQI [EFM1 C-terminal 12 aa] to “IGIGTHDLHFGS [YHR052W-A C-terminal 12 aa]”, the protein stability index rises from 0.675 ± 0.011 to 0.728 ± 0.033.

Going from IGKQKCFIIEMR [MSY1 C-terminal 12 aa] to IHFGETSNYSFD [SMC5 C-terminal 12 aa], the protein stability index rises from 0.6688 ± 0.00094 to 0.722 ± 0.02.

For IHNDIPSHRKLK [FIR1 C-terminal 12 aa], the protein stability index was 0.699 ± 0.022.
